Primed or numbered codes have the meaning given here. Where no end group is shown, it is not given here. 5FAM′ = 5-carboxyfluorescein; Ahx = NCCCCCC(=O)O

The term Ki denotes the equilibrium dissociation constant of an inhibitor or competing ligand from its target. As usually defined, the Kd is the free concentration of one partner at which half of the binding sites on the other are occupied at equilibrium, for simple one-to-one binding.

Assay [1] deals with T1, full-length PP5 (Homo sapiens, UniProt P53041).
T1 construct: His-tag with TEV cleavage site (N, cleaved yes); made in house; host or cells: Escherichia coli BL21 (DE3)
T1 sequence (P53041 1-499): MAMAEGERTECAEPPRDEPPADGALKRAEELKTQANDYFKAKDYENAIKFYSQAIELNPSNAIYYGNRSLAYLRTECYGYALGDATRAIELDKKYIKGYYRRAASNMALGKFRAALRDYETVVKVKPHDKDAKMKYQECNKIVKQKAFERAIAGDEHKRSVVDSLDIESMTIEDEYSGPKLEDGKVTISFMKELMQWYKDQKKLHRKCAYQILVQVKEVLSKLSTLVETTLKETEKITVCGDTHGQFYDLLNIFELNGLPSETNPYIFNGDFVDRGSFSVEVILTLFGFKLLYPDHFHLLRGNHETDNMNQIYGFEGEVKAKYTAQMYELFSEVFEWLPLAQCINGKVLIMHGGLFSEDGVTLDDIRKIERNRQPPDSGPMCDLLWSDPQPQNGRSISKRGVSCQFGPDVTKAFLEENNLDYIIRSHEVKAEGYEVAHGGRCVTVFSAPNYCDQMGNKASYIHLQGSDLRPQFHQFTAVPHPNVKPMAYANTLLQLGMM
As to the kind of experiment: FP competition studies. The assay is classed as binding. To be noted: for affinity relative to natural MEEVD in competition FP: acetylated pentapeptides competing with Hsp90 tracer, n = 4. Here is the method:
(§1) These probes were stored as 10 mM DMSO stocks at −30 °C. […] Each well received PP5 (5 μl) from a 3-fold dilution series prepared using the assay buffer. […] The plate was shielded from light and allowed to incubate at room temperature for 15 min, a duration determined to reach equilibrium during assay development. All experiments were conducted in 384-well, black, low-volume, round-bottom plates (Corning; catalog number = 4511). […] Data analysis was carried out using GraphPad Prism 6.
Samples were incubated for 5 min prior to measurements. Results were analyzed as above.

The target of assay [2] is protein phosphatase 5 (PP5), human, full-length (human) (UniProt P53041). Nature of the assay: fluorescence polarisation; competition (Fig. 1B, C, E, F): unlabelled peptide varied, PP5 at a concentration equivalent to the Kd, tracer 20 nM (tracer not named for these panels), 5 min.
Another assay has as its target T2, PP5 (Homo sapiens, UniProt P53041).
T2 construct: His-tag with TEV cleavage site (N, cleaved yes); made in house; host or cells: Escherichia coli BL21 (DE3)
T2 sequence (P53041 1-499): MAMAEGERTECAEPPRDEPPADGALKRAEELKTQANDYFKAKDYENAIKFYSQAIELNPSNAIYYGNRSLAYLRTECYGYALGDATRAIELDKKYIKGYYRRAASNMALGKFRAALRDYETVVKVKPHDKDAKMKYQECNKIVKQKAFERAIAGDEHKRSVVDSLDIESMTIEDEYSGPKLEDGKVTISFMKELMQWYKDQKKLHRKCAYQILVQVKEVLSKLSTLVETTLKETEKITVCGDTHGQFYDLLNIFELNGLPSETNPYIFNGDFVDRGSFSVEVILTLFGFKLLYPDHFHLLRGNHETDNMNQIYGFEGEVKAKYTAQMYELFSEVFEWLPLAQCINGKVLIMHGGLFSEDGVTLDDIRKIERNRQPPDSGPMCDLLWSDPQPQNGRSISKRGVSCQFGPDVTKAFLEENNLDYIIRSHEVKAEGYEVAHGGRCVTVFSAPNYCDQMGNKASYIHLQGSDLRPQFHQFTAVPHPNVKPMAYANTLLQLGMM
As to the kind of experiment: pNPP colorimetric phosphatase assay. The class given is biochemical. The following applies: peptide 100 μM. How it is done:
To measure PP5’s enzyme activity, pNPP was used as substrate, as previously described ([24], [42]). Briefly, purified PP5 (1 μM) was incubated with peptides (100 μM) in 40 mM Hepes, 20 mM KCl, 5 mM MnCl2, and 1 mM DTT, pH 7.5 at 20 °C in 96-well microtiter plates (total volume 50 μl). Reactions were then initiated by addition of the pNPP substrate at concentrations from 0 to 60 mM. After 30 min, reactions were quenched with 2N NaOH (100 μl), and the release of p-nitrophenol was recorded at 410 nm (ε = 15,100 M − 1 cm−1) on a Molecular Devices M5 plate reader. Enzyme parameters (e.g., Km, kcat) were calculated using the Michaelis–Menten equation in Graphpad Prism 6.

In assay [3] the target is T1, full-length PP5. Nature of the assay: Fluorescence polarization (FP) saturation binding of fluorescent tracers. To be noted: for direct binding of tracer relative to natural sequence: FP direct binding, n = 4. How it is done: as §1
For orientation: Polarisation of emitted light reports the rotation of a fluorescent probe.

In a further assay the test system is HEK293T cells. Nature of the assay: Global translation assay. The assay is classed as cell-based. To be noted: 50 μg/ml, compared to DMSO control, three independent replicates. How it is done:
HEK293T cells (ATCC) were cultured in Dulbecco’s Modified Eagle Medium supplemented with 10% fetal bovine serum and 1% penicillin/streptomycin. These cells were maintained at 37 °C/5% CO2 in a humidified incubator. Cells were negative for mycoplasma contamination (MicroSeq; ThermoFisher Scientific) at the start of the experiments, and they were used without further authentication.
The global translation assay (Abcam; ab273286) was used to measure protein synthesis according to the manufacturer’s specifications. Briefly, in this method, O-propargyl-puromycin is used to trap actively translating ribosomes, followed by addition of a fluorescent Click probe, such that suppression of translational is measured as a decrease in fluorescence. HEK293T cells or HEK293T cells overexpressing FLAG-PP5 were cultured as above. Cells were incubated with the supplied protein label reagent and incubated for 24 h, after which the cells were washed with culture media and fixed/permeabilized for 15 min in the dark. Click reactions were carried out for 30 min, and the plate fluorescence measured at Ex/Em 494/521 nm in a SpectraMax M5 multimode plate reader.

Assay [4] addresses T3, protein phosphatase 5 (PP5), human, full-length (human, UniProt P53041 1-499).
T3 construct: protein phosphatase 5 (PP5), human, full-length, expressed from a pMCSG7 vector; source: E. coli BL21 (DE3), purified (Ni-NTA, TEV cleavage, size-exclusion chromatography); not shown: His-tag, N-terminal, cleaved
T3 sequence (looked up): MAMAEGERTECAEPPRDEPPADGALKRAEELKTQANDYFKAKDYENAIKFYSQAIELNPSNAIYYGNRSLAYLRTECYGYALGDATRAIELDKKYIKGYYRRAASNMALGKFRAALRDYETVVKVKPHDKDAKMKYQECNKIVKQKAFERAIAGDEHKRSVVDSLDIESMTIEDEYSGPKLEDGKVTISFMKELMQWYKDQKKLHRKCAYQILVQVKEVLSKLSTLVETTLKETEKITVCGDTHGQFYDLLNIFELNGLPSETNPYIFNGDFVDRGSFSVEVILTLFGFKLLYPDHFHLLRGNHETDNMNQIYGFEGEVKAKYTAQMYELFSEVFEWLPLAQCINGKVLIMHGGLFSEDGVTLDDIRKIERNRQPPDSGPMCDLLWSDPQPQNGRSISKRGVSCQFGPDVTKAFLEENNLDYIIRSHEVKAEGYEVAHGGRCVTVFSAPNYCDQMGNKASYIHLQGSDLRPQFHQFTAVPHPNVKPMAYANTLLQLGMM
As to the kind of experiment: fluorescence polarisation; saturation binding: tracer 20 nM, 3-fold dilution series of PP5; 50 mM Hepes, 75 mM NaCl, 0.001% Triton X-100, pH 7.4; room temperature, 15 min. The following applies: both partners purified.

The target in assay [5] is T3, protein phosphatase 5 (PP5), human, …. Nature of the assay: cell-based or functional assay.
Assay [6] has as its target T4, protein phosphatase 5 (PP5), human, full-length (human, UniProt P53041 1-499).
T4 chain: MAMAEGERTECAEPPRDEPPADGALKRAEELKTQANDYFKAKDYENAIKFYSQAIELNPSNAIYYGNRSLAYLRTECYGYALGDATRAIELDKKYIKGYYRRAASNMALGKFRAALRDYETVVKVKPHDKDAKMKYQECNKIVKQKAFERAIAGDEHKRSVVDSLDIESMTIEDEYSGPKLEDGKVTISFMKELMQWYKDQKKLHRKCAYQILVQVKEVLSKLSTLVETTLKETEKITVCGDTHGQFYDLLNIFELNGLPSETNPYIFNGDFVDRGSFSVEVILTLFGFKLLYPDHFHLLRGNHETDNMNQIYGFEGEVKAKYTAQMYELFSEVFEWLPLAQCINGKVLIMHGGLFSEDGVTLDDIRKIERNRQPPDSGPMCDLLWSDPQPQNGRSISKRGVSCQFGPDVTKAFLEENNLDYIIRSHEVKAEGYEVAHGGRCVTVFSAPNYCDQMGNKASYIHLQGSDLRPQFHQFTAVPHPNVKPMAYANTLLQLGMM
As to the kind of experiment: FP.

The target of assay [7] is T3, protein phosphatase 5 (PP5), human, …. Nature of the assay: fluorescence polarisation; competition with the Hsp90 tracer (Fig. 2C): PP5 at a concentration equivalent to the Kd, tracer 20 nM, 5 min. The following applies: both partners purified.

With “Ac-GSGPTAEEVD [Hsp70 peptide, P5 isoleucine mutation]”, the Ki at full-length PP5 [1] (read-out: Ki, FP competition (truncations and alanine scan)) is around 13600 nM.
“Hsp70 peptide with the P5 isoleucine replaced by alanine”: the inhibitory constant (Ki) in [2] is 13600 nM.
With “WEEVD [optimized acetylated pentapeptide]”, the “affinity relative to natural MEEVD in competition FP” value at full-length PP5 [1] was “tighter affinity than the natural MEEVD”.
On the same count and under the same terms, for “WDDLD [optimized acetylated pentapeptide]” the value was “tighter affinity than the natural MEEVD”.
For the molecule LSLLA, on full-length PP5 [1] (tracer 5FAM-AHX-LSLLD, unlabeled peptide, three independent experiments in technical triplicates), the “competition with ELP1 tracer for binding to PP5” value was “completely suppressed binding”. Further, the “effect on PP5 enzyme activity” value on PP5 (DMSO 1%) is recorded as “did not”.
As to 5FAM-AHX-WDDID, the “direct binding of tracer relative to natural sequence” value on full-length PP5 [3] is reported as “bound tighter than the natural sequence”.
Still for that read-out and setting: in the case of 5FAM-AHX-WDDPD it was “bound tighter than the natural sequence”.
For the molecule LSLLD [LSLLD], on full-length PP5 [3] (restates Fig. 5B, measured with tracer 5FAM-AHX-LSLLD, read-out: Kd of ELP1 C-terminal motif for PP5's TPR domain (restated)), the Kd was around 4000 nM. The “effect on Km of PP5” value on PP5 (pNPP substrate) was “both the kcat and Km were improved”.
In turn, `C[C@@H]1C[C@@H]([C@H](O)CC2CC(=O)NC(=O)C2)C(=O)[C@@H](C)C1` [cycloheximide] yielded a decrease in translation with HEK293T cells of 40%.

B1: fluorescent tracer of the DDCP C-terminal sequence WKPVD (peptide)
peptide: WKPVD
modifications: also: fluorescent label (tracer), position not given here
notes: the label DDCP could not be tied to an entry; Probably 5FAM-AHX-labelled like the ELP1 tracer; also called DDCP tracer; source: synthetic peptide
For the molecule B1, the Kd in assay [4] is above 100000 nM.

B2: fluorescent tracer of the AGO1 C-terminal five amino acids (negative control) (peptide)
chain: TMYFA
modifications: fluorescent label (tracer)
Consider B2, for which the Kd in assay [4] is above 100000 nM.

B3: optimized acetylated pentapeptide WDDVD (peptide)
peptide: Ac-WDDVD
In the case of B3, the “kcat of PP5 phosphatase activity on pNPP with peptide (100 μM); 2.5-fold” value in assay [5] came to 0.24 s⁻¹. Further, the inhibition constant Ki in [6] amounted to 30 nM.

B4: fluorescent tracer 5FAM-AHX-WDDID (peptide)
peptide: {5FAM′-Ahx}-WDDID
notes: also called WDDID tracer; source: synthetic peptide
Regarding B4, the binding result in assay [4] is on record as “binds”.

B5: fluorescent tracer 5FAM-AHX-WDDPD (peptide)
peptide: {5FAM′-Ahx}-WDDPD
notes: also called WDDPD tracer; source: synthetic peptide
On to B5, for which, in assay [4], the binding result is listed as “binds”.

B6: optimized acetylated pentapeptide WDDLD (peptide)
peptide: Ac-WDDLD
notes: optimized EEVD-like pentapeptide from the PSSCL screen; source: synthetic peptide
As for B6, the binding result in assay [7] is on record as “binds”.

B7: optimized acetylated pentapeptide WDDID (peptide)
peptide: Ac-WDDID
notes: as for B6
As for B7, the inhibition constant Ki in [6] is 60 nM. Further, in assay [7], the binding result is reported as “binds”.

B8: optimized acetylated pentapeptide WDDPD (peptide)
peptide: Ac-WDDPD
notes: as for B6
Molecule B8 displayed an inhibition constant Ki in assay [6] of 40 nM. The binding result in assay [7] is reported as “binds”.

B9: Hsp70 tracer 5FAM-AHX-IEEVD (peptide)
peptide: {5FAM′-Ahx}-IEEVD
notes: also called Hsp70 IEEVD tracer; source: synthetic peptide, custom synthesized by GenScript
For the molecule B9, binding in [4] was characterised by a dissociation constant (Kd) of 941 ± 70 nM.

B10: fluorescent tracer 5FAM-AHX-WEEVD (peptide)
peptide: {5FAM′-Ahx}-WEEVD
notes: also called WEEVD tracer; source: synthetic peptide
The molecule B10 returned a Kd in assay [4] of 15 ± 10 nM.

B11: fluorescent tracer 5FAM-AHX-WDDVD (peptide)
peptide: {5FAM′-Ahx}-WDDVD
notes: also called WDDVD tracer; source: synthetic peptide
In assay [4], B11 returned a Kd of 17 ± 10 nM.

B12: fluorescent tracer of the U520 C-terminal five amino acids (peptide)
chain: DSDSD
modifications: fluorescent label (tracer)
Turning to B12, the dissociation constant Kd in assay [4] is above 100000 nM.

B13: ELP1 tracer 5FAM-AHX-LSLLD (peptide)
peptide: {5FAM′-Ahx}-LSLLD
notes: C-terminal five amino acids of elongator acetyltransferase complex subunit 1 (ELP1; IKBKAP); also called LSLLD tracer; source: synthetic peptide
For the molecule B13, the Kd in [4] was 4400 ± 800 nM.

B14: ELP1 C-terminal pentapeptide LSLLD (unlabelled) (peptide)
peptide: LSLLD
Turning to B14, in assay [5], the “kcat/Km of PP5 phosphatase activity on pNPP with peptide (100 μM); 0.49 μM^−1sec^−1 without peptide” value was determined as 1.28 μM^−1sec^−1.

The values are drawn from paper PMC11259706 (The Journal of Biological Chemistry, 2024).
